This is an account of results in doi:10.1101/2024.06.17.599268 (bioRxiv, 2024).

Test [1] has as its target T1, Rab8a_(1-176) (human, UniProt P61006 1-176).
T1 sequence: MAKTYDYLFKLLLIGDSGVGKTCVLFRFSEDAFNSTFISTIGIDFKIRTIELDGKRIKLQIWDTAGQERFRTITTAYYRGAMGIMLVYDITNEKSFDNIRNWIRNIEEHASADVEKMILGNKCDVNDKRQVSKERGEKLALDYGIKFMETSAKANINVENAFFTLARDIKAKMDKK
Put plainly: SEC. On the technique in general: Size exclusion chromatography separates by hydrodynamic size, large species first.

Test [2] concerns the target T2, Mical1 MO-CH-LIM (residues 1-781) (human, UniProt Q8TDZ2 1-781).
T2 sequence: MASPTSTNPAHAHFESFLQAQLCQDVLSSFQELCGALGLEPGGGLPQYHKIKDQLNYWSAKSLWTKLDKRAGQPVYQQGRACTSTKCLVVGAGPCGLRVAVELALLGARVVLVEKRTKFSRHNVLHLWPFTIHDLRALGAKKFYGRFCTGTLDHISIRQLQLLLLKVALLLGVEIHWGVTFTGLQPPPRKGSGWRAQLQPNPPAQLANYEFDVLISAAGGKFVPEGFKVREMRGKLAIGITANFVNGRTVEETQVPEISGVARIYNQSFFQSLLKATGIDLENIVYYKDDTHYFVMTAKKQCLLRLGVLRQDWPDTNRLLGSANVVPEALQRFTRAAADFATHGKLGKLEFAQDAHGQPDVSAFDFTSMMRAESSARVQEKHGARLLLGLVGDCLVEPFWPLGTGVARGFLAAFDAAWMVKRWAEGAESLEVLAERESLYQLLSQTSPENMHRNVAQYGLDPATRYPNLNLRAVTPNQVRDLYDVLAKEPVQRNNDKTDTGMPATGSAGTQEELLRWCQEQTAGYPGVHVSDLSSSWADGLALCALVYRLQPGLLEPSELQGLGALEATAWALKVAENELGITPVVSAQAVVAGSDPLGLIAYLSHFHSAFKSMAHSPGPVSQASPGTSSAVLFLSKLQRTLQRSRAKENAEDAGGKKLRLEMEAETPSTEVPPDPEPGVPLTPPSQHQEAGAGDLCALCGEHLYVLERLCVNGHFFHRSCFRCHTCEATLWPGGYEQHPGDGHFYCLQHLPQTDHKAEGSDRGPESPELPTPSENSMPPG
Nature of the test: ITC. Background: In ITC the heat of successive injections is recorded.

Where a chain is given by its changes, count along the chain named. Names may count otherwise.

B1: bMERB K918A_E921A (domain or fragment)
chain: AEEAMKRFCKAQTIQRRLNEIEAALRELEAEGVKLELALRRQSSSPEQQKKLWVGQLLQLVDKKNSLVAEEAELMITVQELNLEEKQWQLDQELRGYMNREENLKTAADRQAEDQVLRKLVDLVNQRDALIRFQEERRLSELALGTGAQG
For B1, the binding result in test [1] is “binds”. Moreover, the “fold reduction in affinity against wild-type bMERB” value (“fold reduction in affinity” for short) in test [2] was determined as 2 fold.

B2: bMERB R1044A (domain or fragment)
chain: B1 chain with A1K, A4E, R127A
Regarding B2, in test [1], the binding result is listed as “binds”.

B3: bMERB W970A (domain or fragment)
chain: B1 chain with A1K, A4E, W53A
Take B3: the binding result in test [1] was “binds”. Moreover, in test [2], the “fold reduction in affinity” value was 4 fold.

B4: bMERB L974A_L975A (domain or fragment)
chain: B1 chain with A1K, A4E, L57A, L58A
On to B4, for which the binding result in test [1] is “binds”. The “fold reduction in affinity” value in test [2] amounted to 6 fold.

B5: bMERB L1011S (domain or fragment)
chain: B1 chain with A1K, A4E, L94S
With B5, the binding result in test [1] is given as “binds”.

B6: bMERB_(M992A_I993A) (domain or fragment)
chain: B1 chain with A1K, A4E, M75A, I76A
In the case of B6, the binding result in test [1] is listed as “binds”. In addition, the “fold reduction in affinity” value in test [2] was more than 25 fold.

B7: bMERB L977A_V978A (domain or fragment)
chain: B1 chain with A1K, A4E, L60A, V61A
Take B7: the binding result in test [1] was “binds”. Also, the “fold reduction in affinity” value in test [2] was 6 fold.

B8: bMERB F925A (domain or fragment)
chain: B1 chain with A1K, A4E, F8A
With B8, the binding result in test [1] is “binds”.

B9: bMERB_(L1047A_F1050A) (domain or fragment)
chain: B1 chain with A1K, A4E, L130A, F133A
In the case of B9, the binding result in test [1] is “binds”.

B10: bMERB I1048A (domain or fragment)
chain: B1 chain with A1K, A4E, I131A
Consider B10, for which the binding result in test [1] is on record as “binds”.

B11: bMERB E939A (domain or fragment)
chain: B1 chain with A1K, A4E, E22A
For the molecule B11, the binding result in test [1] was “binds”. Also, in test [2], the “fold reduction in affinity” value was more than 5 fold.

B12: bMERB L956S (domain or fragment)
chain: B1 chain with A1K, A4E, L39S
As for B12, the binding result in test [1] was “binds”. In addition, the “fold reduction in affinity” value in test [2] is more than 9 fold.

B13: bMERB V1041A (domain or fragment)
chain: B1 chain with A1K, A4E, V124A
Regarding B13, the binding result in test [1] is “binds”.

B14: bMERB V1038A (domain or fragment)
chain: B1 chain with A1K, A4E, V121A
Regarding B14, the binding result in test [1] is given as “binds”.

B15: bMERB_(V1041A_I1048A) (domain or fragment)
chain: B1 chain with A1K, A4E, V124A, I131A
In the case of B15, the binding result in test [2] is “binds”.
